# Measurements taken from patent US20220402995A1 (TOSOH, published 2022).
# B1: wild-type AAV-binding protein (extracellular domains 1 and 2, PKD1 and PKD2, of KIAA0319L/AAVR, positions 312-500 of SEQ ID NO: 1, with His tag) (receptor)
# chain: MGSAGESVQITLPKNEVQLNAYVLQEPPKGETYTYDWQLITHPRDYSGEMEGKHSQILKLSKLTPGLYEFKVIVEGQNAHGEGYVNVTVKPEPRKNRPPIAIVSPQFQEISLPTTSTVIDGSQSTDDDKIVQYHWEELKGPLREEKISEDTAILKLSKLVPGNYTFSLTVVDSDGATNSTTANLTVNKAVDHHHHHH
# notes: Expressed in E. coli; tested as extract, culture supernatant or purified protein; also called wild-type AVR; product of pET-AAVRD2
# B2: AVR3 (AAV-binding protein No. 75; Tyr342Cys, Gly390Ser, Ser476Arg) (receptor)
# chain: MGSAGESVQITLPKNEVQLNAYVLQEPPKGETCTYDWQLITHPRDYSGEMEGKHSQILKLSKLTPGLYEFKVIVEGQNAHSEGYVNVTVKPEPRKNRPPIAIVSPQFQEISLPTTSTVIDGSQSTDDDKIVQYHWEELKGPLREEKISEDTAILKLSKLVPGNYTFRLTVVDSDGATNSTTANLTVNKAVDHHHHHH
# B3: AVR5e (Tyr342Cys, Gly390Ser, Lys399Glu, Ser476Arg, Asn487Asp) (receptor)
# chain: MGSAGESVQITLPKNEVQLNAYVLQEPPKGETCTYDWQLITHPRDYSGEMEGKHSQILKLSKLTPGLYEFKVIVEGQNAHSEGYVNVTVEPEPRKNRPPIAIVSPQFQEISLPTTSTVIDGSQSTDDDKIVQYHWEELKGPLREEKISEDTAILKLSKLVPGNYTFRLTVVDSDGATDSTTANLTVNKAVDHHHHHH
# B4: AVR7a (AAV-binding protein No. 93; AVR5e + Asn324Asp, Lys362Glu) (receptor)
# chain: MGSAGESVQITLPKDEVQLNAYVLQEPPKGETCTYDWQLITHPRDYSGEMEGEHSQILKLSKLTPGLYEFKVIVEGQNAHSEGYVNVTVEPEPRKNRPPIAIVSPQFQEISLPTTSTVIDGSQSTDDDKIVQYHWEELKGPLREEKISEDTAILKLSKLVPGNYTFRLTVVDSDGATDSTTANLTVNKAVDHHHHHH
# B5: AVR8a (Val317Asp, Asn324Asp, Tyr342Cys, Lys362Glu, Gly390Ser, Lys399Glu, Ser476Arg, Asn487Asp) (receptor)
# chain: MGSAGESDQITLPKDEVQLNAYVLQEPPKGETCTYDWQLITHPRDYSGEMEGEHSQILKLSKLTPGLYEFKVIVEGQNAHSEGYVNVTVEPEPRKNRPPIAIVSPQFQEISLPTTSTVIDGSQSTDDDKIVQYHWEELKGPLREEKISEDTAILKLSKLVPGNYTFRLTVVDSDGATDSTTANLTVNKAVDHHHHHH
# B6: AVR8g (Val317Asp, Tyr342Cys, Lys362Glu, Lys371Asn, Gly390Ser, Lys399Glu, Ser476Arg, Asn487Asp) (receptor)
# chain: MGSAGESDQITLPKNEVQLNAYVLQEPPKGETCTYDWQLITHPRDYSGEMEGEHSQILKLSNLTPGLYEFKVIVEGQNAHSEGYVNVTVEPEPRKNRPPIAIVSPQFQEISLPTTSTVIDGSQSTDDDKIVQYHWEELKGPLREEKISEDTAILKLSKLVPGNYTFRLTVVDSDGATDSTTANLTVNKAVDHHHHHH
# B7: AVR5eHC (AVR5e with a cysteine tag for immobilization at the C-terminus) (receptor)
# chain: MGSAGESVQITLPKNEVQLNAYVLQEPPKGETCTYDWQLITHPRDYSGEMEGKHSQILKLSKLTPGLYEFKVIVEGQNAHSEGYVNVTVEPEPRKNRPPIAIVSPQFQEISLPTTSTVIDGSQSTDDDKIVQYHWEELKGPLREEKISEDTAILKLSKLVPGNYTFRLTVVDSDGATDSTTANLTVNKAVDHHHHHHCRNDTCG
# notes: also called AVR5e-immobilized gel; AVR5e column
# B8: AVR3HC (protein having an immobilization tag at the C-terminus of AVR3) (receptor)
# chain: MGSAGESVQITLPKNEVQLNAYVLQEPPKGETCTYDWQLITHPRDYSGEMEGKHSQILKLSKLTPGLYEFKVIVEGQNAHSEGYVNVTVKPEPRKNRPPIAIVSPQFQEISLPTTSTVIDGSQSTDDDKIVQYHWEELKGPLREEKISEDTAILKLSKLVPGNYTFRLTVVDSDGATNSTTANLTVNKAVDHHHHHHCRNDTCG
# notes: Immobilised on gel; also called AVR3HC-immobilized gel
# B9: AVR8gHC (protein having an immobilization tag at the C-terminus of AVR8g) (receptor)
# chain: MGSAGESDQITLPKNEVQLNAYVLQEPPKGETCTYDWQLITHPRDYSGEMEGEHSQILKLSNLTPGLYEFKVIVEGQNAHSEGYVNVTVEPEPRKNRPPIAIVSPQFQEISLPTTSTVIDGSQSTDDDKIVQYHWEELKGPLREEKISEDTAILKLSKLVPGNYTFRLTVVDSDGATDSTTANLTVNKAVDHHHHHHCRNDTCG
# notes: Immobilised on gel; also called AVR8gHC-immobilized gel
# What was measured:
# [1] = biological target: T1, AAV2-EGFP (AAV vector of serotype 2 carrying an EGFP gene) (AAV2, UniProt P03135 1-735; P03135 1-598; P03135 1-533); assay: mini column of immobilised protein loaded to breakthrough; AAV2-EGFP recovered by elution at pH 3.0, qPCR
# T1 construct: Genome-containing AAV2 particle; amounts counted as vector genomes (VG) by qPCR
# [2] = biological target: T2, VLP2 (virus-like particles of AAV2) (AAV2, UniProt P03135 1-735; P03135 1-598; P03135 1-533); assay: ELISA on VLP2; A450 after 66.1°C 15 min / untreated
# T2 construct: Empty AAV2 capsid; background says about 60 protein molecules, VP1:VP2:VP3 = 1:1:10; Immobilised on the ELISA plate
# [3] = biological target: T2, VLP2 (virus-like particles of AAV2); assay: ELISA on VLP2; A450 after pH 2.5 30°C 2 h / untreated
# [4] = biological target: T2, VLP2 (virus-like particles of AAV2); assay: ELISA on VLP2; A450 after 50.3°C 15 min / untreated
# [5] = biological target: T2, VLP2 (virus-like particles of AAV2); assay: ELISA on VLP2; A450 after pH 2.5 30°C 24 h / untreated
# [6] = biological target: T2, VLP2 (virus-like particles of AAV2); assay: ELISA on VLP2; binding after 43°C 15 min / untreated
# [7] = biological target: T2, VLP2 (virus-like particles of AAV2); assay: ELISA on VLP2; A450 after pH 3.0 60.1°C 15 min / 25°C
# [8] = biological target: T2, VLP2 (virus-like particles of AAV2); assay: ELISA on VLP2; A450 after pH 3.0 51.5°C 15 min / 25°C
# [9] = biological target: T2, VLP2 (virus-like particles of AAV2); assay: ELISA on VLP2; A450 after pH 3.0 66.1°C 15 min / 25°C
# [10] = biological target: T2, VLP2 (virus-like particles of AAV2); assay: ELISA on VLP2; binding after pH 3.0 51.1°C 15 min / untreated;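 further: binding of the heat-treated AAV-binding protein to VLP2, expressed as a percentage of the binding of the same protein without heating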
# [11] = biological target: T2, VLP2 (virus-like particles of AAV2); assay: ELISA on VLP2; binding after pH 3.0 61.0°C 15 min / untreated
# [12] = biological target: T2, VLP2 (virus-like particles of AAV2); assay: ELISA on VLP2; A450 after pH 3.0 80.8°C 15 min / 25°C
# [13] = biological target: T2, VLP2 (virus-like particles of AAV2); assay: ELISA on VLP2; A450 after pH 3.0 89.8°C 15 min / 25°C
# [14] = biological target: T2, VLP2 (virus-like particles of AAV2); assay: ELISA on VLP2; binding after pH 10.0 41.2°C 15 min / untreated
# [15] = biological target: T1, AAV2-EGFP (AAV vector of serotype 2 …); assay: column of AVR5eHC immobilised on gel; cell extract with AAV2-EGFP applied, elution at pH 2.5
# T2 sequence (P03135 whole entry, chain 1 of 3): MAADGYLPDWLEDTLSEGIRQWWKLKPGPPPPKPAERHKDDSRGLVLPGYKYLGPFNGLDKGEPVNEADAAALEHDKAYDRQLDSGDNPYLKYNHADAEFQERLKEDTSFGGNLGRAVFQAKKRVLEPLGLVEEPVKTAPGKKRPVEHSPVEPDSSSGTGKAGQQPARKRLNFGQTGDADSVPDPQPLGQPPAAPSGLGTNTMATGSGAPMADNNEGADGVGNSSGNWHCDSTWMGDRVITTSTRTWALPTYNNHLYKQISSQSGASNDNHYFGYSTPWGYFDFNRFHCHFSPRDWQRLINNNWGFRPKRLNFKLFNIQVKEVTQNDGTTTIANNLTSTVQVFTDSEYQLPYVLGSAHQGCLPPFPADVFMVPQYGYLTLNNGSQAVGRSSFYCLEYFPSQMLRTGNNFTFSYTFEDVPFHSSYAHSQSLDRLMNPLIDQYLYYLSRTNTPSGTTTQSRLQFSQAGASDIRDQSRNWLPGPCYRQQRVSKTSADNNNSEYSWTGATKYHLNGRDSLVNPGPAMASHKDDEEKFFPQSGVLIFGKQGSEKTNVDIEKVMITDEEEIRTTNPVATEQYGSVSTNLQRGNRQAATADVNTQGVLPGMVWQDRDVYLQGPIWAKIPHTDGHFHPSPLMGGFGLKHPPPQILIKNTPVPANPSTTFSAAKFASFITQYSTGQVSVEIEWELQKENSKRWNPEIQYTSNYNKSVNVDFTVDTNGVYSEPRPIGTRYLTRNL
# T2 sequence (P03135 139-735, tags left off, chain 2 of 3): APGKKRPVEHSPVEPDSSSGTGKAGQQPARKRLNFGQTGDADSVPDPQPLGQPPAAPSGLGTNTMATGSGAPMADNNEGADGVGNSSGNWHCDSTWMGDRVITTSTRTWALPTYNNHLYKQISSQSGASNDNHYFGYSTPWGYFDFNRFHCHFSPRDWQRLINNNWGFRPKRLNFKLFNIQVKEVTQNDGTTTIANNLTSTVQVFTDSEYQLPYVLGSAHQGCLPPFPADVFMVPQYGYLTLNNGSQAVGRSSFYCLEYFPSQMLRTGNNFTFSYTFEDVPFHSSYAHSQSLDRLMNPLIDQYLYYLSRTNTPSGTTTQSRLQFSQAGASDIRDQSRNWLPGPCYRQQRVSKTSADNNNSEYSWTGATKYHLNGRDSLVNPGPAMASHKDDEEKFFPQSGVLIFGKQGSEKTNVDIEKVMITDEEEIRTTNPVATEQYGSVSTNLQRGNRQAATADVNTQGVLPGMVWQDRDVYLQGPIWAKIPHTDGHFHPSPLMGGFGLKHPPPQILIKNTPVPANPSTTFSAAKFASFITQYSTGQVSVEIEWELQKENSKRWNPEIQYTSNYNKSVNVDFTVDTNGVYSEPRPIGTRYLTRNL
# T2 sequence (P03135 203-735, chain 3 of 3): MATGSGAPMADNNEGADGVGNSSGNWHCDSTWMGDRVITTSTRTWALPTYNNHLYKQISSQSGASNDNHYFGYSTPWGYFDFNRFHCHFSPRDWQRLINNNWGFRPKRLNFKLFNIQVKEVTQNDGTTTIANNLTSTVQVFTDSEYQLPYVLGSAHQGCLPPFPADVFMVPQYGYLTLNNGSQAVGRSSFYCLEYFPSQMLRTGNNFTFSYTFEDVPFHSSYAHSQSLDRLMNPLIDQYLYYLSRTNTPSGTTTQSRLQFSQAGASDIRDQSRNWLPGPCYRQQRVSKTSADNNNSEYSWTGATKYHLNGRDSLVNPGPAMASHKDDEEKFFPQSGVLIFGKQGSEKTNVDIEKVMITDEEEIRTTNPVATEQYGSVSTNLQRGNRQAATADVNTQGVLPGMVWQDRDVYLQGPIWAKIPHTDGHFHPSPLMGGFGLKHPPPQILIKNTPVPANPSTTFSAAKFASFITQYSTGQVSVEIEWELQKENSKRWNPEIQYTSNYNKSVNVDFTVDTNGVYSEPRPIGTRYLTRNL
# T1 sequence (P03135 whole entry, chain 1 of 3, the tested form may be a part): as the sequence (P03135 whole entry, chain 1 of 3) above
# T1 sequence (P03135 139-735, tags left off, chain 2 of 3): as the sequence (P03135 139-735, tags left off, chain 2 of 3) above
# T1 sequence (P03135 203-735, chain 3 of 3): as the sequence (P03135 203-735, chain 3 of 3) above
binder,measurement,setting,value
B1,amount of AAV2-EGFP bound per 1 mL of protein-immobilized gel,[1],8.6e+09 VG/mL (gel)
same,Residual activity [%],[2],9.6%
same,Residual activity [%],[3],7.9%
same,Residual activity [%],[4],16.1%
same,Residual activity [%],[5],5.1%
same,Residual activity [%],[6],43.4%
B2,Residual activity after heat treatment [%],[7],3%
same,Residual activity after heat treatment [%],[8],21%
same,Residual activity after heat treatment [%],[9],2%
same,Residual activity [%],[10],96.3%
B3,Residual activity after heat treatment [%],[7],56%
same,Residual activity after heat treatment [%],[8],77%
same,Residual activity [%],[11],25.5%
same,Residual activity after heat treatment [%],[9],43%
B4,Residual activity after heat treatment [%],[12],57%
same,Residual activity [%],[11],50.7%
same,Residual activity after heat treatment [%],[13],54%
B5,Residual activity after heat treatment [%],[12],66%
same,Residual activity after heat treatment [%],[13],52%
B6,Residual activity after heat treatment [%],[12],67%
same,Residual activity [%],[14],23.1%
same,Residual activity after heat treatment [%],[13],55%
B7,binding result,[15],binds
B8,amount of AAV2-EGFP bound per 1 mL of protein-immobilized gel,[1],2.8e+12 VG/mL (gel)
B9,amount of AAV2-EGFP bound per 1 mL of protein-immobilized gel,[1],1.2e+13 VG/mL (gel)
